Measurements published in US20190194253A1 (ARIEL UNIVERSITY RESEARCH AND DEVELOPMENT, published 2019).
Bridge positions count the residues as written; N and C are the ends. Ends that are not written are not given here.

Key:
bovine serum albumin [1] = biological target: T1, bovine serum albumin (bovine, UniProt P02769 25-607); assay: ALOS4-FITC in wells coated with BSA, % of total binding
T1 construct: Control protein coated on wells; also called BSA
Protocol: (§1) FIGS. 12A-12D illustrate selective binding of ALOS4 to αvβ3. (A) ALOS4-FITC binding in wells pre-coated with integrin αvβ3. […] (B) ALOS4-FITC binding in wells coated with collagen or BSA. (C) Binding of random, FTIC-labeled cyclic peptide controls (DPDFP and DSLFP) in wells pre-coated with integrin αvβ3. (D) Competitive homologous binding of ALOS4 to αvβ3 integrin. 10 μM of ALOS4-FITC peptide was incubated with different concentrations of unlabeled ALOS4 on wells pre-coated with αvβ3. […] Data are expressed as percent reduction of maximal fluorescence signal.
(§2) Binding assay: The binding of peptides to immobilized purified integrin alpha-v-beta3 was evaluated using a fluorescein (FITC) labeled peptides. Purified integrin alpha-v-beta3 was first immobilized onto high-protein binding 96-well plates for 2 hour at 37° C. followed by blocking for two hours with 5% fat dry milk in TBS. After that, plates were washed four times with 200 μl TBS. a) For saturation assays plates were incubated with 100 μl of FITC-labeled peptides solutions in 0.01% BSA in Saline for 30 min at RT. […] After second wash 100 μl of TBS was added to the each well and fluorescence signal was read at excitation 490 nm and emission 525 nm using Enspire Plate reader (PerkinElmer). […]

purified Integrin αvβ3 [2] = biological target: T2, purified Integrin αvβ3 (UniProt P06756 31-992; P05106 27-718, limits assumed); assay: saturation binding: ALOS4-FITC in wells pre-coated with integrin αvβ3, % of total binding
T2 construct: Purified integrin coated on 96-well plates; also called integrin alpha-v-beta3; αVβ3 integrin
Protocol: as §1, §2

purified Integrin αvβ3 [3] = biological target: T2, purified Integrin αvβ3; assay: saturation binding of ALOS4-FITC in wells pre-coated with integrin αvβ3, fluorescence, nonlinear regression; direct saturation binding of ALOS4-FITC on αvβ3-coated wells (panel A)
Protocol: as §1, §2

bovine serum albumin [4] = biological target: T1, bovine serum albumin; assay: FITC-labeled peptide added for 30 min to BSA-coated wells, fluorescence plate reader
Protocol: FIG. 7 is a graph illustrating binding of Fluorescein (FITC)—labeled ALOS peptides to purified Integrin αvβ3, collagen (CG) and bovine serum albumin (BSA). Peptides (concentrations 100 uM, 30 uM, 10 uM, luM) were added to integrin pre-coated wells for 30 min. The fluorescence was measured using Enspire plate reader (PerkinElmer). The plots were built using nonlinear regression analysis (GraphPad Prism).
Binding assay: The binding of peptides to immobilized purified integrin alpha-v-beta3 was evaluated using a fluorescein (FITC) labeled peptides. Purified integrin alpha-v-beta3 was first immobilized onto high-protein binding 96-well plates for 2 hour at 37° C. followed by blocking for two hours with 5% fat dry milk in TBS. After that, plates were washed four times with 200 μl TBS. a) For saturation assays plates were incubated with 100 μl of FITC-labeled peptides solutions in 0.01% BSA in Saline for 30 min at RT. B) For competition assays plates were incubated with different concentrations of unlabeled peptides for 30 min in RT followed by addition of fixed concentration of FITC-labeled peptides and additional incubation for 30 min. Wells were washed twice with TBS. After second wash 100 μl of TBS was added to the each well and fluorescence signal was read at excitation 490 nm and emission 525 nm using Enspire Plate reader (PerkinElmer). Binding data analysis was performed using Prism software (GraphPad Software, San Diego, Calif.). Binding curves were fit using nonlinear regression approaches.

purified Integrin αvβ3 [5] = biological target: T2, purified Integrin αvβ3; assay: competitive homologous binding: varied unlabeled ALOS4 against 10 µM ALOS4-FITC on αvβ3-coated wells; competitive homologous binding, unlabeled ALOS4 against 10 µM ALOS4-FITC (panel D)
Protocol: as §1, §2

bovine serum albumin [6] = biological target: T1, bovine serum albumin; assay: FITC-peptide saturation binding on coated wells, fluorescence plate reader

T2 sequence (P06756 31-992 limits assumed, chain 1 of 2): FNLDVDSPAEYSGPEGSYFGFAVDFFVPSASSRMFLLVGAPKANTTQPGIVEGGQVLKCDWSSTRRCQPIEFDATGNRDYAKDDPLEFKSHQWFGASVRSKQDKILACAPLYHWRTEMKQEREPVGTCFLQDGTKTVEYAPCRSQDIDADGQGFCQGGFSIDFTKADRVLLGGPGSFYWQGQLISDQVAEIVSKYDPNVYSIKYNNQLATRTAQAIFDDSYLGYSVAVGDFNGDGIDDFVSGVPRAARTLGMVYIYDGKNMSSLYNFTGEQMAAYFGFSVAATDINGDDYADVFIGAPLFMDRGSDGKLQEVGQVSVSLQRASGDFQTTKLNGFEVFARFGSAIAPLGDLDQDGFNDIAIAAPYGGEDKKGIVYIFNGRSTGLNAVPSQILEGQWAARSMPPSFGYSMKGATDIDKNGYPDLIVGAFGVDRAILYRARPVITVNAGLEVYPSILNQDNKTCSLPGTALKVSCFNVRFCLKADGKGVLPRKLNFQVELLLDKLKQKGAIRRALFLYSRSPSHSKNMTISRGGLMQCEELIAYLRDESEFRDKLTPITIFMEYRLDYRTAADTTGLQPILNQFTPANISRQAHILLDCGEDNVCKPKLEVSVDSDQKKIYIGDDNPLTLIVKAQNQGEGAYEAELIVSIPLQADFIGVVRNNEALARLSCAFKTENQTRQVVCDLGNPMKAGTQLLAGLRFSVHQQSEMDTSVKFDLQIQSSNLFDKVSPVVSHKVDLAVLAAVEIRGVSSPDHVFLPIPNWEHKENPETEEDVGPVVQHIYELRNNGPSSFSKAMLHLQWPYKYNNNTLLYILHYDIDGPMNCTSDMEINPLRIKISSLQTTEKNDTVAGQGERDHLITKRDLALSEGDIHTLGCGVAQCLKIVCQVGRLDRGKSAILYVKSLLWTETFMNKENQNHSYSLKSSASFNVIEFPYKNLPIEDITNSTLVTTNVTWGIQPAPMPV
T2 sequence (P05106 27-718 limits assumed, chain 2 of 2): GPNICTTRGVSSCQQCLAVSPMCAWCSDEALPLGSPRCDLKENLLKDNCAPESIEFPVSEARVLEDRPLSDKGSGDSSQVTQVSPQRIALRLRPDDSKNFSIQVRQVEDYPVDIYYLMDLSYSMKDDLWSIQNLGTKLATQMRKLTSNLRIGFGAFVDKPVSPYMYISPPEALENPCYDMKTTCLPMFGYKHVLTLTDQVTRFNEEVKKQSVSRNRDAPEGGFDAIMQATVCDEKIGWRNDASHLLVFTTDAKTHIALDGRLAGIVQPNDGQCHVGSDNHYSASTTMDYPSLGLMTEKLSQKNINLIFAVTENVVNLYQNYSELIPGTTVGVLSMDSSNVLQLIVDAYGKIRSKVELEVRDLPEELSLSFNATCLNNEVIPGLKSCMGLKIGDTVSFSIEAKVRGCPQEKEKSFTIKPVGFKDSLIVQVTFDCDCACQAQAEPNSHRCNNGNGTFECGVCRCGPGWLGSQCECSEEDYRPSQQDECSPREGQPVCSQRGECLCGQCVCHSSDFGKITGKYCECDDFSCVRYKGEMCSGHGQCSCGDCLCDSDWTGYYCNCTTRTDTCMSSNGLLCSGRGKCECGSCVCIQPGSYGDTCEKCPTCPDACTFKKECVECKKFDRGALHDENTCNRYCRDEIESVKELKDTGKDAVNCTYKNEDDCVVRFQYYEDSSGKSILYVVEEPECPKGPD
T1 sequence (P02769 25-607 limits assumed): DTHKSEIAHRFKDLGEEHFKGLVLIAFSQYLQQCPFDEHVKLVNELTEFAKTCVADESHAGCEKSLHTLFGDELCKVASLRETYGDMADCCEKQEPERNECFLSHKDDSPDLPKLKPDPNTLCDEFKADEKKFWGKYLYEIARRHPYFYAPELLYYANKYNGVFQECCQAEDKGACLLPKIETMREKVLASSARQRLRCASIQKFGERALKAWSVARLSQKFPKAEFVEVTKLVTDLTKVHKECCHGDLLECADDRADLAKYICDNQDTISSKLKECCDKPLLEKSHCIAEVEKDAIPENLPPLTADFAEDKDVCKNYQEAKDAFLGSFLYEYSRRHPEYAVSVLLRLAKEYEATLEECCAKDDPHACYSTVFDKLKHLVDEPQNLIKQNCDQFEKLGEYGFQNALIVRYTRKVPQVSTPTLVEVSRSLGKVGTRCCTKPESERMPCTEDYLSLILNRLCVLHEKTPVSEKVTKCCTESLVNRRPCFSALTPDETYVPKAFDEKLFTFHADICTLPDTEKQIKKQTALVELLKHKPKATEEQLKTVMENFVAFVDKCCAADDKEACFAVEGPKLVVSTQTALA

B1: ALOS-4, fluorescein (FITC)-labeled (peptide)
peptide: CSSAGSLFC
modifications: disulfide 1-9 (inferred); also: FITC label, position not given here
notes: Synthetic peptide from the phage display screen; also called ALOS4-FITC; ALOS peptides
binding result (bovine serum albumin [1]): no binding (tested: 100 µM)
EC50 (read off the curve) (purified Integrin αvβ3 [2]): ~200 nM
Kd (purified Integrin αvβ3 [3]): 192 nM

B2: ALOS-1, fluorescein (FITC)-labeled (peptide)
peptide: CNLSSSWIC
modifications: not fully specified (bridges); cysteine pairing not given here; also: FITC label, position not given here
notes: Synthetic peptide from the phage display screen; also called ALOS peptides; ALOSs
binding result (bovine serum albumin [4]): no binding (tested: 100 µM)

B3: ALOS-2, fluorescein (FITC)-labeled (peptide)
peptide: CPPSNHLLC
modifications: not fully specified (bridges); cysteine pairing not given here; also: FITC label, position not given here
notes: as for B2
binding result (bovine serum albumin [4]): no binding (tested: 100 µM)

B4: ALOS-3, fluorescein (FITC)-labeled (peptide)
peptide: CAPSPSRLC
modifications: not fully specified (bridges); cysteine pairing not given here; also: FITC label, position not given here
notes: as for B2
binding result (bovine serum albumin [4]): no binding (tested: 100 µM)

B5: unlabeled ALOS4 (peptide)
peptide: CSSAGSLFC
modifications: disulfide 1-9 (inferred)
notes: Its concentration was varied
Kd (purified Integrin αvβ3 [5]): 2550 nM

B6: ALOS-5, fluorescein (FITC)-labeled (peptide)
peptide: CPLHARLPC
modifications: not fully specified (bridges); cysteine pairing not given here; also: FITC label, position not given here
notes: as for B2
binding result (bovine serum albumin [6]): no binding
